Measured values: patent US20220195070A1 (Chugai, published 2022)
Changes are numbered by the printed parent chain.

B1: SKA0027 (antibody, V domains shown)
VH: QEQLVESGGGLVQPEGSLTLTCTASGFSFSSSDYMCWVRQAPGKGLEWIGCIYTGSGSTYYASWAKGRFTISKTSSTTVTLQMTSLTAADTATFFCARRGDSYSNYSFKLWGPGTLVTVSS
VL: AFELTQTPASVEAAVGGTVTIKCQASQNIYSNLAWYQQKPGQPPKLLIYTASSLASGVSSRFKGSGSGTEFTLTISDLECDDAATYYCQCTYINNGYGNTFGGGTEVVVKG
notes: Recombinant rabbit monoclonal from B-cell cloning, expressed in FreeStyle 293-F cells; the first screen used B-cell culture supernatant; also called Anti-SG115 Antibody; rabbit Anti Fc-Mutation Antibody
B2: SKA0001 (antibody, V domains shown)
VH: QSVEESGGRLVTPGTPLTLTCTVSGFSLSYYAMNWVRQAPGKGLEWIGIIGISGGTYYASWAKGRFTISKSSSTTVDLKMTSPTTEDTATYFCARGGSAWGDLWGQGTLVTVSS
VL: DIVMTQTPSSVSAAVGGTVTINCQASQSISRLLAWYQQKPGQPPKVLMHDASDLASGVPSRFKGSGSGTEYTLTISDLECADAATYYCQSYYWGSSGDIGYPFGGGTEVVVKG
notes: as for B1
B3: SKA0171 (antibody, V domains shown)
VH: QSLEESGGGLVQPEGSLTLSCTASGFSFSSSYYMCWVRQAPGKGLEWIACIYGGNSVITYYANWAKGRFTISETSSTTVTLQMTSLTAADTATYFCAREVHYDYLYTTYGYANLWGPGTLVTVSS
VL: AIKMTQTPASVSAVVGGTVTINCQASETIYSGLAWYQQKPGQPPKLLIYDTANLETGVSSRFKGSGSGTEYTLTISDLECDDAATYFCLYAYYSGGSADNAFGGGTEVVVKG
notes: as for B1
B4: SKA0028 (antibody, V domains shown)
VH: QSVEESGGRLVTPGTPLTLTCTASGFTISSYHMSWVRQAPGKGLEWIGIIHGSGNMWYASWAKGRFTISRTSTTVDLEITSPTTEDTATYFCARIRFWASSNYYYFYLWGQGTLVTVSS
VL: ALVMTQTPASVSEPVGGTVTINCQASQNIYSNLAWYQQKPGQRPRLLIYGASNLESGVPSRFRGSGSGTEFTLTISDLECADAATYYCQSAYWGNNNDGAFGGGTEVVVKG
notes: as for B1
B5: SKA0117 (antibody, V domains shown)
VH: QSLEESGGDLVKPEGSLTLTCTASGFSFSSSHYMCWVRQAPGKGLEWIACIYAGSSDNTYYASWAKGRFTISKTSSTTVTLQMTSLTAADTATYFCARDTYGYVGYASAGGFFNLWGPGTLVTVSS
VL: ALVMTQTPASVSAAVGGTVTINCQASHNIYSVLAWYQQKPGQRPRLLIYGASNLESGVPSRFKGSGSGTEYTLTISDLECDDAATYYCQSAYYSSSTGDNAFGGGTEVVVKG
notes: as for B1
B6: SKA0141 (antibody, V domains shown)
VH: QSLEESGGDLVKPGASLTLTCTASGFSFSSSYYMCWVRQAPGKGLEWIACIYAGSSGSTYYASWAKGRFTISKTSSTTVTLQMTSLTAADTATYFCARDGDENMLVGGYFNLWGPGTLVTVSS
VL: B5 VL with A9S, V32N, R45K, S96N, T97A, D99Y
notes: as for B1

Legend:
[1] = target: T1, anti-DENV E protein antibody comprising a modified IgG heavy chain constant region (SEQ ID NO: 116); experiment: SPR (Biacore T200), 25 C, pH 7.4; SKA antibody captured by anti-rabbit IgG, anti-DENV E protein antibody injected 0-400 nM
T1 construct: also called anti-DENY E protein antibody; Fc-Mutated Antibody
Excerpt: (§1) Anti-rabbit IgG was immobilized onto FC 3 and 4 of a CMS sensor chip using an amine coupling kit (GE Healthcare). For the immobilization of anti-rabbit IgG, HBS-EP+, pH7.4 (GE Healthcare) buffer was used as running buffer. After the immobilization, running buffer was changed to phosphate pH7.4 buffer. Each antibody was captured onto FC4 of the sensor chip by anti-rabbit IgG. The amount of Anti Fc-Mutation Antibody to be captured was adjusted so that the number of resonance units (RU) was 100.

[2] = target: T1, anti-DENV E protein antibody comprising …; experiment: SPR (Biacore T200), 25 C, pH 7.4; SKA antibody captured by anti-rabbit IgG, anti-DENV E protein antibody injected 0-400 nM; *reliability might be low
Excerpt: as §1

T1 sequence (constant, as listed by the source limits assumed): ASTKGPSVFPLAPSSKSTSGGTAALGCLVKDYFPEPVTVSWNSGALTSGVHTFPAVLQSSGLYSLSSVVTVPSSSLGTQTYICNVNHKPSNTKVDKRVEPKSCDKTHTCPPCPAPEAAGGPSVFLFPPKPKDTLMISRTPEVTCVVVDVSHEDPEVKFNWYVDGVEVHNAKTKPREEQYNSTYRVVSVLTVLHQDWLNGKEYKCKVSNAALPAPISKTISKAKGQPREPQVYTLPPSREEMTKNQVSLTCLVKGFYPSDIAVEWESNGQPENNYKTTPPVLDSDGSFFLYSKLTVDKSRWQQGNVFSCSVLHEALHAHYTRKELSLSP

Binder	Kd [1]	koff [1]	kon [1]	Kd [2]	koff [2]
B1	1 nM	0.000191 s⁻¹	190000 M⁻¹ s⁻¹	–	–
B2	–	–	44400 M⁻¹ s⁻¹	0.00278 nM	1.23e-07 s⁻¹
B3	1.45 nM	0.00149 s⁻¹	1.02e+06 M⁻¹ s⁻¹	–	–
B4	–	7.27e-05 s⁻¹	116000 M⁻¹ s⁻¹	0.626 nM	–
B5	–	–	126000 M⁻¹ s⁻¹	0.000275 nM	3.46e-08 s⁻¹
B6	5.04 nM	0.00135 s⁻¹	267000 M⁻¹ s⁻¹	–	–
